The binders below were run against T1, HER2 on HER2-positive AU565 cells (human, UniProt P04626 23-1255) (assay: FACS, AU565 cells).
T1 construct: whole, on cells
Method: Cells (1×10^5 cells/well) were incubated in polystyrene 96-well round-bottom plates (Greiner bio-one 650101) with serial dilutions of antibody preparations (range 2 to 10000 ng/mL in 4-fold dilutions for Jurkat cells and range 1 to 3000 ng/mL in 4-fold dilutions for on AU565 cells) in 100 μL PBS/0.1% BSA/0.02% azide at 4° C. for 30 min.
After washing twice in PBS/0.1% BSA/0.02% azide, cells were incubated in 100 μL with secondary antibody at 4° C. for 30 min. As a secondary antibody, R-Phycoerythrin (PE)-conjugated goat-anti-human IgG F(ab′)₂ (109-116-098, Jackson ImmunoResearch Laboratories, Inc., West Grove, Pa.) diluted 1/100 in PBS/0.1% BSA/0.02% azide, was used for all experiments. Next, cells were washed twice in PBS/0.1% BSA/0.02% azide, resuspended in 150 μL PBS/0.1% BSA/0.02% azide and analyzed on a FACS CantoII (BD Biosciences). Binding curves were analyzed using non-linear regression (sigmoidal dose-response with variable slope) using GraphPad Prism V5.04 software (GraphPad Software, San Diego, Calif., USA).

| Binder | binding result |
| --- | --- |
| IgG1-HER2 (IgG1-HER2-169-K409R), wild-type Fc (antibody) heavy: not shown VL: EIVLTQSPATLSLSPGERATLSCRASQSVSSYLAWYQQKPGQAPRLLIYDASNRATGIPARFSGSGSGTDFTLTISSLEPEDFAVYYCQQRSNWPRTFGQGTKVEIK | binds |
| IgG1-HER2-DANQ (IgG1-HER2-169-K409R with D265A/N297Q) (antibody, IgG1, K409R) heavy: QVQLVQSGAEVKKPGASVKVSCKASGYTFTNYGISWVRQAPGQGLEWMGWLSAYSGNTIYAQKLQGRVTMTTDTSTTTAYMELRSLRSDDTAVYYCARDRIVVRPDYFDYWGQGTLVTVSSASTKGPSVFPLAPSSKSTSGGTAALGCLVKDYFPEPVTVSWNSGALTSGVHTFPAVLQSSGLYSLSSVVTVPSSSLGTQTYICNVNHKPSNTKVDKRVEPKSCDKTHTCPPCPAPELLGGPSVFLFPPKPKDTLMISRTPEVTCVVVAVSHEDPEVKFNWYVDGVEVHNAKTKPREEQYQSTYRVVSVLTVLHQDWLNGKEYKCKVSNKALPAPIEKTISKAKGQPREPQVYTLPPSREEMTKNQVSLTCLVKGFYPSDIAVEWESNGQPENNYKTTPPVLDSDGSFFLYSRLTVDKSRWQQGNVFSCSVMHEALHNHYTQKSLSLSPGK VL: EIVLTQSPATLSLSPGERATLSCRASQSVSSYLAWYQQKPGQAPRLLIYDASNRATGIPARFSGSGSGTDFTLTISSLEPEDFAVYYCQQRSNWPRTFGQGTKVEIK | binds |
| IgG1-HER2-DAPS (IgG1-HER2-169-K409R with D265A/P331S) (antibody, IgG1, K409R) heavy: QVQLVQSGAEVKKPGASVKVSCKASGYTFTNYGISWVRQAPGQGLEWMGWLSAYSGNTIYAQKLQGRVTMTTDTSTTTAYMELRSLRSDDTAVYYCARDRIVVRPDYFDYWGQGTLVTVSSASTKGPSVFPLAPSSKSTSGGTAALGCLVKDYFPEPVTVSWNSGALTSGVHTFPAVLQSSGLYSLSSVVTVPSSSLGTQTYICNVNHKPSNTKVDKRVEPKSCDKTHTCPPCPAPELLGGPSVFLFPPKPKDTLMISRTPEVTCVVVAVSHEDPEVKFNWYVDGVEVHNAKTKPREEQYNSTYRVVSVLTVLHQDWLNGKEYKCKVSNKALPASIEKTISKAKGQPREPQVYTLPPSREEMTKNQVSLTCLVKGFYPSDIAVEWESNGQPENNYKTTPPVLDSDGSFFLYSRLTVDKSRWQQGNVFSCSVMHEALHNHYTQKSLSLSPGK VL: EIVLTQSPATLSLSPGERATLSCRASQSVSSYLAWYQQKPGQAPRLLIYDASNRATGIPARFSGSGSGTDFTLTISSLEPEDFAVYYCQQRSNWPRTFGQGTKVEIK | binds |
| IgG1-HER2-LFLENQ (IgG1-HER2-169-K409R with L234F/L235E/N297Q) (antibody, IgG1, K409R) heavy: QVQLVQSGAEVKKPGASVKVSCKASGYTFTNYGISWVRQAPGQGLEWMGWLSAYSGNTIYAQKLQGRVTMTTDTSTTTAYMELRSLRSDDTAVYYCARDRIVVRPDYFDYWGQGTLVTVSSASTKGPSVFPLAPSSKSTSGGTAALGCLVKDYFPEPVTVSWNSGALTSGVHTFPAVLQSSGLYSLSSVVTVPSSSLGTQTYICNVNHKPSNTKVDKRVEPKSCDKTHTCPPCPAPEFEGGPSVFLFPPKPKDTLMISRTPEVTCVVVDVSHEDPEVKFNWYVDGVEVHNAKTKPREEQYQSTYRVVSVLTVLHQDWLNGKEYKCKVSNKALPAPIEKTISKAKGQPREPQVYTLPPSREEMTKNQVSLTCLVKGFYPSDIAVEWESNGQPENNYKTTPPVLDSDGSFFLYSRLTVDKSRWQQGNVFSCSVMHEALHNHYTQKSLSLSPGK VL: EIVLTQSPATLSLSPGERATLSCRASQSVSSYLAWYQQKPGQAPRLLIYDASNRATGIPARFSGSGSGTDFTLTISSLEPEDFAVYYCQQRSNWPRTFGQGTKVEIK | binds |
| IgG1-HER2-LALA (IgG1-HER2-169-K409R with L234A/L235A) (antibody, IgG1, K409R) heavy: QVQLVQSGAEVKKPGASVKVSCKASGYTFTNYGISWVRQAPGQGLEWMGWLSAYSGNTIYAQKLQGRVTMTTDTSTTTAYMELRSLRSDDTAVYYCARDRIVVRPDYFDYWGQGTLVTVSSASTKGPSVFPLAPSSKSTSGGTAALGCLVKDYFPEPVTVSWNSGALTSGVHTFPAVLQSSGLYSLSSVVTVPSSSLGTQTYICNVNHKPSNTKVDKRVEPKSCDKTHTCPPCPAPEAAGGPSVFLFPPKPKDTLMISRTPEVTCVVVDVSHEDPEVKFNWYVDGVEVHNAKTKPREEQYNSTYRVVSVLTVLHQDWLNGKEYKCKVSNKALPAPIEKTISKAKGQPREPQVYTLPPSREEMTKNQVSLTCLVKGFYPSDIAVEWESNGQPENNYKTTPPVLDSDGSFFLYSRLTVDKSRWQQGNVFSCSVMHEALHNHYTQKSLSLSPGK VL: EIVLTQSPATLSLSPGERATLSCRASQSVSSYLAWYQQKPGQAPRLLIYDASNRATGIPARFSGSGSGTDFTLTISSLEPEDFAVYYCQQRSNWPRTFGQGTKVEIK | binds |

Results, then the binder that gave them:

| binding result | Binder |
| --- | --- |
| binds | IgG1-HER2-LFLEPS (IgG1-HER2-169-K409R with L234F/L235E/P331S) (antibody, IgG1, K409R) heavy: QVQLVQSGAEVKKPGASVKVSCKASGYTFTNYGISWVRQAPGQGLEWMGWLSAYSGNTIYAQKLQGRVTMTTDTSTTTAYMELRSLRSDDTAVYYCARDRIVVRPDYFDYWGQGTLVTVSSASTKGPSVFPLAPSSKSTSGGTAALGCLVKDYFPEPVTVSWNSGALTSGVHTFPAVLQSSGLYSLSSVVTVPSSSLGTQTYICNVNHKPSNTKVDKRVEPKSCDKTHTCPPCPAPEFEGGPSVFLFPPKPKDTLMISRTPEVTCVVVDVSHEDPEVKFNWYVDGVEVHNAKTKPREEQYNSTYRVVSVLTVLHQDWLNGKEYKCKVSNKALPASIEKTISKAKGQPREPQVYTLPPSREEMTKNQVSLTCLVKGFYPSDIAVEWESNGQPENNYKTTPPVLDSDGSFFLYSRLTVDKSRWQQGNVFSCSVMHEALHNHYTQKSLSLSPGK VL: EIVLTQSPATLSLSPGERATLSCRASQSVSSYLAWYQQKPGQAPRLLIYDASNRATGIPARFSGSGSGTDFTLTISSLEPEDFAVYYCQQRSNWPRTFGQGTKVEIK |
| binds | IgG1-HER2-LFLEDA (IgG1-HER2-169-K409R with L234F/L235E/D265A) (antibody, name in EU numbering, IgG1, K409R) heavy: QVQLVQSGAEVKKPGASVKVSCKASGYTFTNYGISWVRQAPGQGLEWMGWLSAYSGNTIYAQKLQGRVTMTTDTSTTTAYMELRSLRSDDTAVYYCARDRIVVRPDYFDYWGQGTLVTVSSASTKGPSVFPLAPSSKSTSGGTAALGCLVKDYFPEPVTVSWNSGALTSGVHTFPAVLQSSGLYSLSSVVTVPSSSLGTQTYICNVNHKPSNTKVDKRVEPKSCDKTHTCPPCPAPEFEGGPSVFLFPPKPKDTLMISRTPEVTCVVVAVSHEDPEVKFNWYVDGVEVHNAKTKPREEQYNSTYRVVSVLTVLHQDWLNGKEYKCKVSNKALPAPIEKTISKAKGQPREPQVYTLPPSREEMTKNQVSLTCLVKGFYPSDIAVEWESNGQPENNYKTTPPVLDSDGSFFLYSRLTVDKSRWQQGNVFSCSVMHEALHNHYTQKSLSLSPGK VL: EIVLTQSPATLSLSPGERATLSCRASQSVSSYLAWYQQKPGQAPRLLIYDASNRATGIPARFSGSGSGTDFTLTISSLEPEDFAVYYCQQRSNWPRTFGQGTKVEIK |
| binds | IgG1-HER2-LFLE (IgG1-HER2-169-K409R with L234F/L235E) (antibody, IgG1, K409R) heavy: QVQLVQSGAEVKKPGASVKVSCKASGYTFTNYGISWVRQAPGQGLEWMGWLSAYSGNTIYAQKLQGRVTMTTDTSTTTAYMELRSLRSDDTAVYYCARDRIVVRPDYFDYWGQGTLVTVSSASTKGPSVFPLAPSSKSTSGGTAALGCLVKDYFPEPVTVSWNSGALTSGVHTFPAVLQSSGLYSLSSVVTVPSSSLGTQTYICNVNHKPSNTKVDKRVEPKSCDKTHTCPPCPAPEFEGGPSVFLFPPKPKDTLMISRTPEVTCVVVDVSHEDPEVKFNWYVDGVEVHNAKTKPREEQYNSTYRVVSVLTVLHQDWLNGKEYKCKVSNKALPAPIEKTISKAKGQPREPQVYTLPPSREEMTKNQVSLTCLVKGFYPSDIAVEWESNGQPENNYKTTPPVLDSDGSFFLYSRLTVDKSRWQQGNVFSCSVMHEALHNHYTQKSLSLSPGK VL: EIVLTQSPATLSLSPGERATLSCRASQSVSSYLAWYQQKPGQAPRLLIYDASNRATGIPARFSGSGSGTDFTLTISSLEPEDFAVYYCQQRSNWPRTFGQGTKVEIK |
| binds | IgG1-HER2-DA (IgG1-HER2-169-K409R with D265A) (antibody, IgG1, K409R) heavy: not shown VL: EIVLTQSPATLSLSPGERATLSCRASQSVSSYLAWYQQKPGQAPRLLIYDASNRATGIPARFSGSGSGTDFTLTISSLEPEDFAVYYCQQRSNWPRTFGQGTKVEIK |
| binds | IgG1-HER2-N297Q (IgG1-HER2-169-K409R with N297Q) (antibody, IgG1, K409R; also called NQ) heavy: not shown VL: EIVLTQSPATLSLSPGERATLSCRASQSVSSYLAWYQQKPGQAPRLLIYDASNRATGIPARFSGSGSGTDFTLTISSLEPEDFAVYYCQQRSNWPRTFGQGTKVEIK |
| binds | IgG1-HER2-… (IgG1-HER2-169-K409R with L234F/L235E/D265A/N297Q/P331S) (antibody, IgG1, K409R) heavy: QVQLVQSGAEVKKPGASVKVSCKASGYTFTNYGISWVRQAPGQGLEWMGWLSAYSGNTIYAQKLQGRVTMTTDTSTTTAYMELRSLRSDDTAVYYCARDRIVVRPDYFDYWGQGTLVTVSSASTKGPSVFPLAPSSKSTSGGTAALGCLVKDYFPEPVTVSWNSGALTSGVHTFPAVLQSSGLYSLSSVVTVPSSSLGTQTYICNVNHKPSNTKVDKRVEPKSCDKTHTCPPCPAPEFEGGPSVFLFPPKPKDTLMISRTPEVTCVVVAVSHEDPEVKFNWYVDGVEVHNAKTKPREEQYQSTYRVVSVLTVLHQDWLNGKEYKCKVSNKALPASIEKTISKAKGQPREPQVYTLPPSREEMTKNQVSLTCLVKGFYPSDIAVEWESNGQPENNYKTTPPVLDSDGSFFLYSRLTVDKSRWQQGNVFSCSVMHEALHNHYTQKSLSLSPGK VL: EIVLTQSPATLSLSPGERATLSCRASQSVSSYLAWYQQKPGQAPRLLIYDASNRATGIPARFSGSGSGTDFTLTISSLEPEDFAVYYCQQRSNWPRTFGQGTKVEIK |

What follows are binders tested against T2, C1q (from 3% pooled human serum) (human, UniProt P02745 23-245; P02746 28-253; P02747 29-245) (assay: ELISA, antibody coated, 3% pooled human serum, anti-C1q detection).
T2 construct: Native C1q of pooled human serum, detected with rabbit anti-human C1q
Method: Plates were washed and blocked with PBS supplemented with 0.025% Tween 20 and 0.1% gelatine. […] Detection was performed by addition of 1 mg/mL 2,2′-azino-bis(3-ethylbenzothiazoline-6-sulfonic acid) (ABTS; Roche, Mannheim, Germany) for about 30 min. The reaction was stopped by the addition of 100 μL 2% oxalic acid. Absorbance was measured at 405 nm in a microplate reader (Biotek, Winooski, Vt.). Log transformed data were analyzed by fitting sigmoidal dose-response curves with variable slope using GraphPad Prism software.

| binding result | Binder |
| --- | --- |
| binds | IgG1-CD3 (IgG1-huCLB-T3/4-F405L), wild-type Fc (antibody, also called wild-type IgG1-CD3; IgG1-huCLB-3/4) heavy: not shown VL: EIVLTQSPATLSLSPGERATLSCSASSSVTYVHWYQQKPGQAPRLLIYDTSKLASGIPARFSGSGSGTDFTLTISSLEPEDFAVYYCFQGSGYPLTFGSGTKLEMR |

Source: patent US20150337049A1 (Genmab, published 2015)
